Bridges are numbered along the chain shown (N, C = ends). Where no end group is shown, it is not given here. minicard = not defined here
What was measured:
[1] = molecular target: T1, EPANPSEK of the second extracellular loop of human CD20 (human); assay: Pepscan ELISA
T1 construct: not a peptide made as such
T1 peptide: EPANPSEK
Description: (§1) Pepscan ELISA-assay: The 455-well credit card-format polyethylene cards, containing the covalently linked peptides, were incubated with serum (diluted 1:1000 in blocking solution which contains 5% horse serum (v/v) and 5% ovalbumin (w/v)) (4° C., over night). After washing, the peptides were incubated with anti-human antibody peroxidase (dilution 1:1000, 1 hour, 25° C.), and after washing the peroxidase substrate, 2,2′-azino-di-3-ethylbenzthiazolin sulfonate and 2 μl/ml 3% H₂O₂ were added. After one hour, the color development was measured. The color development of the ELISA was quantified with a CCD-camera and an image processing system. The set up consists of a CCD-camera and a 55 mm lens (Sony CCD Video Camera XC-77RR, Nikon micro-nikk or 55 mm f/2.8 lens), a camera adaptor (Sony Camera adaptor DC-77RR) and the Image Processing Software package Optimas, version 6.5 (Media Cybernetics, Silver Spring, Md. 20910, U.S.A.). Optimas runs on a pentium II computer system.

[2] = molecular target: T2, GIYAPIA (also: covalently linked to polyethylene card); assay: Pepscan ELISA, 100 µg/ml
T2 construct: 7-mer Pepscan peptide derived from human CD20 (A in place of the C of GIYAPIC)
T2 peptide: GIYAPIA
Description: (§2) In some cases chemical linkage of the legs of a 15-mer peptide helps to identify amino acid sequences of a potentially discontinuous epitope. […] The 9- and 15-mers were synthesized as loops and screened using credit-card format mini-PEPSCAN cards (455 peptide format/card). In all looped peptides amino acids at varied positions were replaced by a cysteine (e.g., acetyl-XCXXXXXXXXCX-minicard). The peptides were synthesized using standard Fmoc-chemistry and deprotected using TFA with scavengers. Subsequently, the deprotected peptides were reacted on the microarray with an 0.5 mM solution of 1,3-bis(bromomethyl)-benzene in ammonium bicarbonate (20 mM, pH 7.9), supplemented with acetonitrile (1:1 (v/v)). The microarrays were gently shaken in the solution for 30-60 min, while completely covered in the solution. Finally, the microarrays were washed extensively with excess of Millipore H₂O and sonicated in disrupt-buffer containing 1% sodium dodecylsulfate, 0.1% β-mercaptoethanol, in PBS (pH 7.2) at 70° C. for 30 min, followed by sonication in millipore H₂O for another 45 min. Subsequently, the microwells were ready for screening in an ELISA-assay.
(§3) […] After washing, the peptides were incubated with anti-human antibody peroxidase (dilution 1:1000, 1 hour, 25° C.), and after washing the peroxidase substrate, 2,2′-azino-di-3-ethylbenzthiazolin sulfonate and 2 μl/ml 3% H₂O₂ were added. After one hour, the color development was measured. The color development of the ELISA was quantified with a CCD-camera and an image processing system.

[3] = molecular target: T3, MESLCFIRAHCPYIN (linker 5-11 via 1,3‑bis(bromomethyl)‑benzene (inferred); reading uncertain); assay: Pepscan ELISA, 100 µg/ml
T3 construct: 15-mer looped Pepscan peptide derived from human CD20, Cys put in at two positions
T3 peptide: Ac-MESLCFIRAHCPYIN-minicard
Description: as §2, §3

[4] = molecular target: T4, IYAPIAV (also: covalently linked to polyethylene card); assay: Pepscan ELISA, 100 µg/ml
T4 construct: 7-mer Pepscan peptide derived from human CD20 (A in place of the C of IYAPICV)
T4 peptide: IYAPIAV
Description: as §2, §3

[5] = molecular target: T5, CRAHTPYIC (linker 1-9 via 1,3‑bis(bromomethyl)‑benzene (inferred); not fully specified (C-terminus); also: covalently linked to minicard); assay: Pepscan ELISA, 100 µg/ml
T5 construct: 9-mer looped Pepscan peptide derived from human CD20
T5 peptide: CRAHTPYIC
Description: as §2, §3

[6] = molecular target: T6, CIRAHTPYC (linker 1-9 via 1,3‑bis(bromomethyl)‑benzene (inferred); not fully specified (C-terminus); also: covalently linked to minicard); assay: Pepscan ELISA, 100 µg/ml
T6 construct: 9-mer looped Pepscan peptide derived from human CD20
T6 peptide: CIRAHTPYC
Description: as §2, §3

[7] = molecular target: T7, IPAGIYA (also: covalently linked to polyethylene card); assay: Pepscan ELISA, 100 µg/ml
T7 construct: 7-mer Pepscan peptide derived from human CD20
T7 peptide: IPAGIYA
Description: as §2, §3

[8] = molecular target: T8, KMESCNFIRACTPYI (linker 5-11 via 1,3‑bis(bromomethyl)‑benzene (inferred); reading uncertain); assay: Pepscan ELISA, 100 µg/ml
T8 construct: 15-mer looped Pepscan peptide derived from human CD20, Cys put in at two positions
T8 peptide: Ac-KMESCNFIRACTPYI-minicard
Description: as §2, §3

[9] = molecular target: T9, CFIRAHTPC (linker 1-9 via 1,3‑bis(bromomethyl)‑benzene (inferred); not fully specified (C-terminus); also: covalently linked to minicard); assay: Pepscan ELISA, 100 µg/ml
T9 construct: 9-mer looped Pepscan peptide derived from human CD20
T9 peptide: CFIRAHTPC
Description: as §2, §3

[10] = molecular target: T10, CAHTPYINC (linker 1-9 via 1,3‑bis(bromomethyl)‑benzene (inferred); not fully specified (C-terminus); also: covalently linked to minicard); assay: Pepscan ELISA, 100 µg/ml
T10 construct: 9-mer looped Pepscan peptide derived from human CD20
T10 peptide: CAHTPYINC
Description: as §2, §3

[11] = molecular target: T11, IYAPICV (also: covalently linked to polyethylene card); assay: Pepscan ELISA, 100 µg/ml
T11 construct: 7-mer Pepscan peptide derived from human CD20
T11 peptide: IYAPICV
Description: as §2, §3

[12] = molecular target: T12, KMECLNFIRAHCPYI (linker 4-12 via 1,3‑bis(bromomethyl)‑benzene (inferred); reading uncertain); assay: Pepscan ELISA, 100 µg/ml
T12 construct: 15-mer looped Pepscan peptide derived from human CD20, Cys put in at two positions
T12 peptide: Ac-KMECLNFIRAHCPYI-minicard
Description: as §2, §3

[13] = molecular target: T13, LKMECLNFIRCHTPY (linker 5-11 via 1,3‑bis(bromomethyl)‑benzene (inferred); reading uncertain); assay: Pepscan ELISA, 100 µg/ml
T13 construct: 15-mer looped Pepscan peptide derived from human CD20, Cys put in at two positions
T13 peptide: Ac-LKMECLNFIRCHTPY-minicard
Description: as §2, §3

[14] = molecular target: T14, AGIYAPI (also: covalently linked to polyethylene card); assay: Pepscan ELISA, 100 µg/ml
T14 construct: 7-mer Pepscan peptide derived from human CD20
T14 peptide: AGIYAPI
Description: as §2, §3

[15] = molecular target: T15, PAGIYAP (also: covalently linked to polyethylene card); assay: Pepscan ELISA, 100 µg/ml
T15 construct: 7-mer Pepscan peptide derived from human CD20
T15 peptide: PAGIYAP
Description: as §2, §3

[16] = molecular target: T16, GIYAPIC (also: covalently linked to polyethylene card); assay: Pepscan ELISA, 100 µg/ml
T16 construct: 7-mer Pepscan peptide derived from human CD20
T16 peptide: GIYAPIC
Description: as §2, §3

[17] = molecular target: T5, CRAHTPYIC; assay: Pepscan ELISA, 10 µg/ml
Description: as §2, §3

[18] = molecular target: T17, MESLNFIRAHTPYI of the second extracellular loop of human CD20 (human); assay: Pepscan ELISA
T17 construct: not a peptide made as such
T17 peptide: MESLNFIRAHTPYI
Description: as §1

[19] = molecular target: T18, AGIYAP of the small first extracellular loop of human CD20 (human); assay: Pepscan ELISA
T18 construct: not a peptide made as such
T18 peptide: AGIYAP
Description: as §1

B1: 11B8 (antibody, IgG3, V domains shown)
VH: EVQLVQSGGGLVHPGGSLRLSCTGSGFTFSYHAMHWVRQAPGKGLEWVSIIGTGGVTYYADSVKGRFTISRDNVKNSLYLQMNSLRAEDMAVYYCARDYYGAGSFYDGLYGMDVWGQGTTVTVSS
VL: EIVLTQSPATLSLSPGERATLSCRASQSVSSYLAWYQQKPGQAPRLLIYDASNRATGIPARFSGSGSGTDFTLTISSLEPEDFAVYYCQQRSDWPLTFGGGTKVEIK
notes: Human monoclonal IgG3,κ from hybridoma
- binding result [1]: no binding (tested: 10 µg/ml)
- OD (absorbance) [2]: 857 OD
- OD (absorbance) [3]: 956 OD
- OD (absorbance) [4]: 654 OD
- OD (absorbance) [5]: 1600 OD
- OD (absorbance) [6]: 449 OD
- OD (absorbance) [7]: 950 OD
- OD (absorbance) [8]: 3090 OD
- OD (absorbance) [9]: 534 OD
- OD (absorbance) [10]: 452 OD
- OD (absorbance) [11]: 313 OD
- OD (absorbance) [12]: 3000 OD
- OD (absorbance) [13]: 738 OD
- OD (absorbance) [14]: 2210 OD
- OD (absorbance) [15]: 2500 OD
- OD (absorbance) [16]: 251 OD
- OD (absorbance) [17]: 427 OD

B2: 7D8 (antibody, IgG1, V domains shown)
VH: EVQLVESGGGLVQPDRSLRLSCAASGFTFHDYAMHWVRQAPGKGLEWVSTISWNSGTIGYADSVKGRFTISRDNAKNSLYLQMNSLRAEDTALYYCAKDIQYGNYYYGMDVWGQGTTVTVSS
VL: EIVLTQSPATLSLSPGERATLSCRASQSVSSYLAWYQQKPGQAPRLLIYDASNRATGIPARFSGSGSGTDFTLTISSLEPEDFAVYYCQQRSNWPITFGQGTRLEIK
notes: Human monoclonal IgG1,κ from hybridoma
- binding result [1]: no binding (tested: 10 µg/ml)
- binding result [18]: no binding (tested: 100 µg/ml)
- binding result [19]: no binding (tested: 100 µg/ml)
- OD (absorbance) [2]: 96 OD
- OD (absorbance) [3]: 55 OD
- OD (absorbance) [4]: 58 OD
- OD (absorbance) [5]: 64 OD
- OD (absorbance) [6]: 60 OD
- OD (absorbance) [8]: 52 OD
- OD (absorbance) [9]: 69 OD
- OD (absorbance) [10]: 65 OD
- OD (absorbance) [11]: 58 OD
- OD (absorbance) [12]: 41 OD
- OD (absorbance) [13]: 41 OD
- OD (absorbance) [14]: 73 OD
- OD (absorbance) [15]: 64 OD
- OD (absorbance) [16]: 64 OD
- OD (absorbance) [17]: 188 OD

B3: 2F2 (antibody, V domains shown)
VH: EVQLVESGGGLVQPGRSLRLSCAASGFTFNDYAMHWVRQAPGKGLEWVSTISWNSGSIGYADSVKGRFTISRDNAKKSLYLQMNSLRAEDTALYYCAKDIQYGNYYYGMDVWGQGTTVTVSS
VL: EIVLTQSPATLSLSPGERATLSCRASQSVSSYLAWYQQKPGQAPRLLIYDASNRATGIPARFSGSGSGTDFTLTISSLEPEDFAVYYCQQRSNWPITFGQGTRLEIK
modifications: FITC- or 125I-labelled in some assays; F(ab')2 fragments in some; the letters do not carry this
notes: Human monoclonal IgG1,κ from hybridoma; also called 4C9; HuMab 2F2 (hybridoma-derived)
- OD (absorbance) [2]: 96 OD
- OD (absorbance) [3]: 65 OD
- OD (absorbance) [4]: 76 OD
- OD (absorbance) [5]: 87 OD
- OD (absorbance) [6]: 92 OD
- OD (absorbance) [7]: 85 OD
- OD (absorbance) [8]: 78 OD
- OD (absorbance) [9]: 114 OD
- OD (absorbance) [10]: 106 OD
- OD (absorbance) [11]: 99 OD
- OD (absorbance) [12]: 66 OD
- OD (absorbance) [13]: 87 OD
- OD (absorbance) [14]: 98 OD
- OD (absorbance) [15]: 85 OD
- OD (absorbance) [16]: 93 OD
- OD (absorbance) [17]: 48 OD
